Numbered stars: 1 amine (or outer) side, 2 acyl side, 3 side chain; on linkers, the order of the positions; unused ones are H or OH. Bridge positions count the residues as written; N and C are the ends. Square brackets hold non-standard residues; d marks the D form. Primed or numbered codes have the meaning given here. NEtCNG = 2-(2-Cyanoethylamino)acetic acid ((2-cyanoethyl)glycine), N#CCCN(CC(=O)[*:2])[*:1]; bhcLeu = (1R,3S)-3-aminocyclopentane-1-carboxylic acid, O=C([C@@H]1CC[C@H](N[*:1])C1)[*:2]; Trp(βS-Me,7-OMe) = COc1cccc2c([C@H](C)[C@H](N)C(=O)O)c[nH]c12; Trp(βS-Me) = C[C@@H](c1c[nH]c2ccccc12)[C@H](N)C(=O)O; Trp(7-Cl) = N[C@@H](Cc1c[nH]c2c(Cl)cccc12)C(=O)O; Phe(3-COOH) = N[C@@H](Cc1cccc(C(=O)O)c1)C(=O)O; Phe(4-CONH2) = NC(=O)c1ccc(C[C@H](N)C(=O)O)cc1; Phe(4-COOH) = N[C@@H](Cc1ccc(C(=O)O)cc1)C(=O)O; Trp(7-aza) = N[C@@H](Cc1c[nH]c2ncccc12)C(=O)O; Phe(4-CH2NH2) = NCc1ccc(C[C@H](N)C(=O)O)cc1; 3Pal(6-OMe) = COc1ccc(C[C@H](N)C(=O)O)cn1; Pip(5R-OH) = O=C(O)[C@@H]1CC[C@@H](O)CN1; αMeW = C[C@](N)(Cc1c[nH]c2ccccc12)C(=O)O; Ala(2-furyl) = N[C@@H](Cc1ccco1)C(=O)O; 2Nal = N[C@@H](Cc1ccc2ccccc2c1)C(=O)O; Dap(CONH2) = NC(=O)NC[C@H](N)C(=O)O; Pip(4-aza) = O=C(O)[C@@H]1CNCCN1; 3Pal = N[C@@H](Cc1cccnc1)C(=O)O; 4Pal = N[C@@H](Cc1ccncc1)C(=O)O; NMeE = CN[C@@H](CCC(=O)O)C(=O)O; 2SBrBu = not defined here; 2SBrPr = not defined here; NMeS = CN[C@@H](CO)C(=O)O; Pip = O=C(O)[C@@H]1CCCCN1; αMeS = C[C@](N)(CO)C(=O)O; Nle = CCCC[C@H](N)C(=O)O; Pip2c = not defined here; SBrPh = not defined here; Ahp′ = not defined here; Spip = not defined here; Dap = NC[C@H](N)C(=O)O; Sar = CNCC(=O)O
T1: TNFR1 on THP-1 Lucia NF-κB cells (UniProt P19438 30-455, limits assumed)
T1 sequence (looked up): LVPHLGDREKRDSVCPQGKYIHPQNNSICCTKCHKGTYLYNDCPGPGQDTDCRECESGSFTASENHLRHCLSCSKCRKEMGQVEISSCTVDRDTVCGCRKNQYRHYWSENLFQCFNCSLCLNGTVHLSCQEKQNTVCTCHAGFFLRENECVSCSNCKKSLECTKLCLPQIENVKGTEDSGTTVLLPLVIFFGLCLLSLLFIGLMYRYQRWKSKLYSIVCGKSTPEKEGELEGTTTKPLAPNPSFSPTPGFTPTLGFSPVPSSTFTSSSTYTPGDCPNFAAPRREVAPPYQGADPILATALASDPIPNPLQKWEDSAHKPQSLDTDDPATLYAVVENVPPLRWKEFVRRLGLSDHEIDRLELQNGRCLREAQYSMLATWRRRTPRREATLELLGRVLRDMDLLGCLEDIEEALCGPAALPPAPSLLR

B1: SEQ ID NO. 236 (peptide)
peptide: {CH2CO}-[Nle][4Pal][Pip(4-aza)]W[dP]N[Ala(2-furyl)][Trp(7-Cl)][αMeS][Phe(4-COOH)]Y[Sar][Trp(βS-Me,7-OMe)]C-NH2
modifications: thioether N-14
SMILES: CCCC[C@@H]1NC(=O)CSC[C@@H](C(N)=O)NC(=O)[C@H]([C@@H](C)c2c[nH]c3c(OC)cccc23)NC(=O)CN(C)C(=O)[C@H](Cc2ccc(O)cc2)NC(=O)[C@H](Cc2ccc(C(=O)O)cc2)NC(=O)[C@](C)(CO)NC(=O)[C@H](Cc2c[nH]c3c(Cl)cccc23)NC(=O)[C@H](Cc2ccco2)NC(=O)[C@H](CC(N)=O)NC(=O)[C@H]2CCCN2C(=O)[C@H](Cc2c[nH]c3ccccc23)NC(=O)[C@@H]2CNCCN2C(=O)[C@H](Cc2ccncc2)NC1=O
B2: SEQ ID NO. 225 (peptide)
peptide: cyclo([bhcLeu][Nle][4Pal][Pip(4-aza)]W[NMeE][Dap(CONH2)][4Pal][Trp(7-Cl)][αMeS][Phe(4-COOH)]Y[Sar][Trp(βS-Me,7-OMe)])
SMILES: CCCC[C@@H]1NC(=O)[C@@H]2CC[C@@H](C2)NC(=O)[C@H]([C@@H](C)c2c[nH]c3c(OC)cccc23)NC(=O)CN(C)C(=O)[C@H](Cc2ccc(O)cc2)NC(=O)[C@H](Cc2ccc(C(=O)O)cc2)NC(=O)[C@](C)(CO)NC(=O)[C@H](Cc2c[nH]c3c(Cl)cccc23)NC(=O)[C@H](Cc2ccncc2)NC(=O)[C@H](CNC(N)=O)NC(=O)[C@H](CCC(=O)O)N(C)C(=O)[C@H](Cc2c[nH]c3ccccc23)NC(=O)[C@@H]2CNCCN2C(=O)[C@H](Cc2ccncc2)NC1=O
B3: SEQ ID NO. 249 (peptide)
peptide: {CH2CO}-[Nle][4Pal][Pip(4-aza)]W[NMeE]N[4Pal][Trp(7-Cl)][αMeS][Phe(3-COOH)]Y[Sar][Trp(βS-Me,7-OMe)]C-NH2
modifications: thioether N-14
SMILES: CCCC[C@@H]1NC(=O)CSC[C@@H](C(N)=O)NC(=O)[C@H]([C@@H](C)c2c[nH]c3c(OC)cccc23)NC(=O)CN(C)C(=O)[C@H](Cc2ccc(O)cc2)NC(=O)[C@H](Cc2cccc(C(=O)O)c2)NC(=O)[C@](C)(CO)NC(=O)[C@H](Cc2c[nH]c3c(Cl)cccc23)NC(=O)[C@H](Cc2ccncc2)NC(=O)[C@H](CC(N)=O)NC(=O)[C@H](CCC(=O)O)N(C)C(=O)[C@H](Cc2c[nH]c3ccccc23)NC(=O)[C@@H]2CNCCN2C(=O)[C@H](Cc2ccncc2)NC1=O
B4: SEQ ID NO. 237 (peptide)
peptide: {CH2CO}-[Ahp′][4Pal]S[Trp(βS-Me)][dP]N[Phe(4-COOH)][2Nal][αMeS][Phe(4-COOH)]H[Sar][αMeW]C-NH2
modifications: thioether N-14; reading uncertain; also: printed as cyclo(ClAc-Ahp-4Pal-S-SbMeW-dP-N-Phe4COOH-2Nal-aMeS-Phe4COOH-H-Sar-aMeW-C)-NH2
B5: SEQ ID NO. 250 (peptide)
peptide: 2SBrPr-[Nle][Phe(4-CH2NH2)]S[Trp(7-aza)][NMeE]N[4Pal][Trp(7-Cl)][αMeS][Phe(4-CONH2)]Y[Sar][Trp(βS-Me,7-OMe)]C-NH2
modifications: thioether N-14; reading uncertain; also: printed as cyclo(2SBrPr-Nle-Phe4CH2NH2-S-Trp7az-NMeE-N-4Pal-Trp7Cl-aMeS-Phe4CONH2-Y-Sar-SbMeW7OMe-C)-NH2
B6: SEQ ID NO. 246 (peptide)
peptide: 2SBrBu-[Nle][4Pal][Spip]W[NMeE]N[4Pal][Trp(7-Cl)][αMeS][Phe(4-CONH2)]Y[Sar][Trp(βS-Me,7-OMe)]C-NH2
modifications: thioether N-14; reading uncertain; also: printed as cyclo(2SBrBu-Nle-4Pal-Spip-W-NMeE-N-4Pal-Trp7Cl-aMeS-Phe4CONH2-Y-Sar-SbMeW7OMe-C)-NH2
B7: SEQ ID NO. 264 (peptide)
peptide: {CH2CO}-[Nle]H[Pip2c][Trp(7-aza)][NMeE]N[4Pal][Trp(7-Cl)][αMeS][Phe(4-COOH)]Y[Sar][Trp(βS-Me,7-OMe)]C-NH2
modifications: thioether N-14; reading uncertain; also: printed as cyclo(ClAc-Nle-H-Pip2c-Trp7az-NMeE-N-4Pal-Trp7Cl-aMeS-Phe4COOH-Y-Sar-SbMeW7OMe-C)-NH2
B8: SEQ ID NO. 241 (peptide)
peptide: cyclo([bhcLeu][Nle][3Pal(6-OMe)][Pip(4-aza)]W[NMeE]N[4Pal][Trp(7-Cl)][αMeS][Phe(4-COOH)]Y[Sar][Trp(βS-Me,7-OMe)])
SMILES: CCCC[C@@H]1NC(=O)[C@@H]2CC[C@@H](C2)NC(=O)[C@H]([C@@H](C)c2c[nH]c3c(OC)cccc23)NC(=O)CN(C)C(=O)[C@H](Cc2ccc(O)cc2)NC(=O)[C@H](Cc2ccc(C(=O)O)cc2)NC(=O)[C@](C)(CO)NC(=O)[C@H](Cc2c[nH]c3c(Cl)cccc23)NC(=O)[C@H](Cc2ccncc2)NC(=O)[C@H](CC(N)=O)NC(=O)[C@H](CCC(=O)O)N(C)C(=O)[C@H](Cc2c[nH]c3ccccc23)NC(=O)[C@@H]2CNCCN2C(=O)[C@H](Cc2ccc(OC)nc2)NC1=O
B9: SEQ ID NO. 274 (peptide)
peptide: SBrPh-[Nle][4Pal]S[Trp(7-aza)][NMeE]N[4Pal][Trp(7-Cl)][αMeS][Phe(4-COOH)]Y[Sar][αMeW]C-NH2
modifications: thioether N-14; reading uncertain; also: printed as cyclo(SBrPh-Nle-4Pal-S-Trp7az-NMeE-N-4Pal-Trp7Cl-aMeS-Phe4COOH-Y-Sar-aMeW-C)-NH2
B10: SEQ ID NO. 226 (peptide)
peptide: {CH2CO}-[Ahp′]Y[AlaPiperaz][Trp(βS-Me)][dP]N[4Pal][Trp(7-Cl)][αMeS][Phe(4-COOH)][3Pal][Sar][αMeW]C-NH2
modifications: thioether N-14; reading uncertain; also: printed as cyclo(ClAc-Ahp-Y-AlaPiperaz-SbMeW-dP-N-4Pal-Trp7Cl-aMeS-Phe4COOH-3Pal-Sar-aMeW-C)-NH2
B11: SEQ ID NO. 255 (peptide)
peptide: {CH2CO}-[Nle][4Pal][Pip(4-aza)][Trp(7-aza)][NMeE]N[4Pal][Trp(7-Cl)][αMeS][Phe(4-COOH)]Y[Sar][Trp(βS-Me,7-OMe)]CGEE-NH2
modifications: thioether N-14
SMILES: CCCC[C@@H]1NC(=O)CSC[C@@H](C(=O)NCC(=O)N[C@@H](CCC(=O)O)C(=O)N[C@@H](CCC(=O)O)C(N)=O)NC(=O)[C@H]([C@@H](C)c2c[nH]c3c(OC)cccc23)NC(=O)CN(C)C(=O)[C@H](Cc2ccc(O)cc2)NC(=O)[C@H](Cc2ccc(C(=O)O)cc2)NC(=O)[C@](C)(CO)NC(=O)[C@H](Cc2c[nH]c3c(Cl)cccc23)NC(=O)[C@H](Cc2ccncc2)NC(=O)[C@H](CC(N)=O)NC(=O)[C@H](CCC(=O)O)N(C)C(=O)[C@H](Cc2c[nH]c3ncccc23)NC(=O)[C@@H]2CNCCN2C(=O)[C@H](Cc2ccncc2)NC1=O
B12: SEQ ID NO. 228 (peptide)
peptide: {CH2CO}-[Nle][4Pal][Pip][Trp(7-aza)][NEtCNG]N[4Pal][Trp(7-Cl)][αMeS][Phe(4-COOH)]Y[Sar][Trp(βS-Me,7-OMe)]C-NH2
modifications: thioether N-14
SMILES: CCCC[C@@H]1NC(=O)CSC[C@@H](C(N)=O)NC(=O)[C@H]([C@@H](C)c2c[nH]c3c(OC)cccc23)NC(=O)CN(C)C(=O)[C@H](Cc2ccc(O)cc2)NC(=O)[C@H](Cc2ccc(C(=O)O)cc2)NC(=O)[C@](C)(CO)NC(=O)[C@H](Cc2c[nH]c3c(Cl)cccc23)NC(=O)[C@H](Cc2ccncc2)NC(=O)[C@H](CC(N)=O)NC(=O)CN(CCC#N)C(=O)[C@H](Cc2c[nH]c3ncccc23)NC(=O)[C@@H]2CCCCN2C(=O)[C@H](Cc2ccncc2)NC1=O
B13: SEQ ID NO. 273 (peptide)
peptide: XXXXENXXXXYGXC
modifications: not fully specified; cyclo(2SBrPr-Nle-4Pal-Bav-Trp7az-NMeE-N-4Pal-Trp7Cl-aMeS-Phe4CONH2-Y-Sar-SbMeW7OMe-C)-NH2

molecular target: T1, TNFR1 on THP-1 Lucia NF-κB cells; experiment: cell-based or functional assay

Binder	THP-1 IC50 [nM]
B1	4.2
B2	0.9
{CH2CO}-[LysN3][4Pal][Dap][Trp(βS-Me)][dP]N[4Pal][Trp(7-Cl)][αMeS][Phe(4-COOH)][Phe(4-CH2NH2)][Sar][αMeW]C-NH2 (thioether N-14) [SEQ ID NO. 245]	9.4
B3	4.4
B4	20.8
B5	2.4
B6	4.3
B7	8.1
cyclo([bhcLeu][LysMe2][4Pal][Pip(5R-OH)]W[NMeE]N[4Pal][Trp(7-Cl)][αMeS][Phe(4-CONH2)]Y[Sar][Trp(βS-Me,7-OMe)]) [SEQ ID NO. 238]	0.7
B8	1.4
{CH2CO}-[Nle][4Pal][NMeS]W[NMeE]N[4Pal][Trp(7-Cl)][αMeS][Phe(4-COOH)][Phe3CONH2][Sar][Trp(βS-Me,7-OMe)]C-NH2 (thioether N-14) [SEQ ID NO. 270]	2.2
B9	3.2
B10	10
B11	6.5
B12	4
B13	4.1

— patent US20240287138A1 (Merck Sharp & Dohme, published 2024)
